The target of test [1] is cynomolgus CD33 (cynomolgus). As to the kind of experiment: flow cytometry KDs on CHO cells, cyno CD33 / human CD33. On the technique in general: Flow cytometry measures light scatter and fluorescence of single cells or particles in a stream.
The next test has as its target human CD3 (human, UniProt P07766 23-207). As to the kind of experiment: cell-based or functional assay.

Chain of human CD3 (P07766 23-207): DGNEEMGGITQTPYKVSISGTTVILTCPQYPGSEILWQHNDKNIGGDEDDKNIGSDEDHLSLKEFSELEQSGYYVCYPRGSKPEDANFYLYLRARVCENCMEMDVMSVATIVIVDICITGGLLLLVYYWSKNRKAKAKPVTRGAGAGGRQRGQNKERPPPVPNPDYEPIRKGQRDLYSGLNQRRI

B1: CD33/CD3 tandem diabody 14 (bispecific antibody)
chain: DIQMTQSPSSLSASVGDRVTITCRSSTGAVTTSNYANWVQQKPGKAPKALIGGTNKRAPGVPSRFSGSLIGDKATLTISSLQPEDFATYYCALWYSNLWVFGQGTKVEIKGGSGGSQVQLVQSGAEVKKPGASVKVSCKASGYTFTSYDINWVRQAPGQGLEWMGWMNPNSGNTGFAQKFQGRVTMTRDTSTSTVYMELSSLRSEDTAVYYCARDRANTDFSYGMDVWGQGTLVTVSSGGSGQSVLTQPPSASGTPGQRVTISCSGSRSNIGSNTVNWYQQLPGTAPKLLIYGNNQRPSGVPDRFSGSKSGSSASLAISGLQSEDEADYYCATWDDSLIGWVFGGGTKLTVLGGSGGSEVQLVESGGGLVQPGGSLRLSCAASGFTFSTYAMNWVRQAPGKGLEWVGRIRSKYNNYATYYADSVKDRFTISRDDSKNSLYLQMNSLKTEDTAVYYCARHGNFGNSYVSYFAYWGQGTLVTVSSAAAGSHHHHHH
On to B1, for which the KD ratio CynoCD33/huCD33 in test [1] turned out to be 1.

B2: CD33/CD3 tandem diabody 15 (bispecific antibody)
chain: DIQMTQSPSSLSASVGDRVTITCRSSTGAVTTSNYANWVQQKPGKAPKALIGGTNKRAPGVPSRFSGSLIGDKATLTISSLQPEDFATYYCALWYSNLWVFGQGTKVEIKGGSGGSQVQLVQSGAEVKKPGASVKVSCKASGYTFTSYDINWVRQAPGQGLEWMGWMNPNSGNTGFAQKFQGRVTMTRDTSTSTVYMELSSLRSEDTAVYYCARDRANTDYSFGMDVWGQGTLVTVSSGGSGQSVLTQPPSASGTPGQRVTISCSGSRSNIGSNTVNWYQQLPGTAPKLLIYGNNQRPSGVPDRFSGSKSGTSASLAISGLQSEDEADYYCATWDDSLIGWVFGGGTKLTVLGGSGGSEVQLVESGGGLVQPGGSLRLSCAASGFTFSTYAMNWVRQAPGKGLEWVGRIRSKYNNYATYYADSVKDRFTISRDDSKNSLYLQMNSLKTEDTAVYYCARHGNFGNSYVSYFAYWGQGTLVTVSSAAAGSHHHHHH
As for B2, the KD ratio CynoCD33/huCD33 in test [1] came out at 1.1.

B3: CD33/CD3 tandem diabody 16 (bispecific antibody)
chain: DIQMTQSPSSLSASVGDRVTITCRSSTGAVTTSNYANWVQQKPGKAPKALIGGTNKRAPGVPSRFSGSLIGDKATLTISSLQPEDFATYYCALWYSNLWVFGQGTKVEIKGGSGGSQVQLVQSGAEVKKPGASVKVSCKASGYTFTSYDINWVRQAPGQGLEWMGWMNPNSGNTGFAQKFQGRVTMTRDTSTSTVYMELSSLRSEDTAVYYCARDRANTDYSLGMDVWGQGTLVTVSSGGSGQSVLTQPPSASGTPGQRVTISCSGSRSNIGSNTVNWYQQLPGTAPKLLIYGNNQRPSGVPDRFSGSKSGTSASLAISGLQSEDEADYYCATWDDSLIGWVFGGGTKLTVLGGSGGSEVQLVESGGGLVQPGGSLRLSCAASGFTFSTYAMNWVRQAPGKGLEWVGRIRSKYNNYATYYADSVKDRFTISRDDSKNSLYLQMNSLKTEDTAVYYCARHGNFGNSYVSYFAYWGQGTLVTVSSAAAGSHHHHHH
Consider B3, for which the KD ratio CynoCD33/huCD33 in test [1] is 1.4.

B4: CD33/CD3 tandem diabody 17 (bispecific antibody)
chain: DIQMTQSPSSLSASVGDRVTITCRSSTGAVTTSNYANWVQQKPGKAPKALIGGTNKRAPGVPSRFSGSLIGDKATLTISSLQPEDFATYYCALWYSNLWVFGQGTKVEIKGGSGGSQVQLVQSGAEVKKPGESLKISCKGSGYSFTSYWIGWVRQMPGKGLEWMGIIYPGDSDTRYSPSFQGQVTISADKSISTAYLQWSSLKASDTAMYYCARHKRGSDAFDIWGQGTTVTVSSGGSGQSVLTQPPSVSGAPGQRVTISCTGSSSNIGAGYDVHWYQQLPGTAPKLLIYGNSNRPSGVPDRFSGSKSGTSASLAITGLQAEDEADYYCQSYDSSLSDVVFGGGTKLTVLGGSGGSEVQLVESGGGLVQPGGSLRLSCAASGFTFSTYAMNWVRQAPGKGLEWVGRIRSKYNNYATYYADSVKDRFTISRDDSKNSLYLQMNSLKTEDTAVYYCARHGNFGNSYVSYFAYWGQGTLVTVSSAAAGSHHHHHH
As to B4, the KD ratio CynoCD33/huCD33 in test [1] came to 1.9.

B5: CD33/CD3 tandem diabody 18 (bispecific antibody)
chain: EVQLVESGGGLVQPGGSLRLSCAASGFTFSTYAMNWVRQAPGKGLEWVGRIRSKYNNYATYYADSVKDRFTISRDDSKNSLYLQMNSLKTEDTAVYYCARHGNFGNSYVSYFAYWGQGTLVTVSSGGSGGSQSVLTQPPSVSGAPGQRVTISCTGSSSNIGAGYDVHWYQQLPGTAPKLLIYGNSNRPSGVPDRFSGSKSGTSASLAITGLQAEDEADYYCQSYDSSLSDVVFGGGTKLTVLGGSGQVQLVQSGAEVKKPGESLKISCKGSGYSFTSYWIGWVRQMPGKGLEWMGIIYPGDSDTRYSPSFQGQVTISADKSISTAYLQWSSLKASDTAMYYCARHKRGSDAFDIWGQGTTVTVSSGGSGGSDIQMTQSPSSLSASVGDRVTITCRSSTGAVTTSNYANWVQQKPGKAPKALIGGTNKRAPGVPSRFSGSLIGDKATLTISSLQPEDFATYYCALWYSNLWVFGQGTKVEIKAAAGSHHHHHH
For the molecule B5, the KD ratio CynoCD33/huCD33 in test [1] came to 3.1.

B6: CD33/CD3 tandem diabody 20 (bispecific antibody)
chain: DIQMTQSPSSLSASVGDRVTITCRSSTGAVTTSNYANWVQQKPGKAPKGLIGGTNKRAPGVPSRFSGSLIGTDFTLTISSLQPEDFATYYCALWYSNLWVFGQGTKVEIKGGSGGSQVQLVQSGAEVKKPGASVKVSCKASGYTFTSYYMHWVRQAPGQGLEWMGIINPSGGSTSYAQKFQGRVTMTRDTSTSTVYMELSSLRSEDTAVYYCARDVVPAAIDYYGMDVWGQGTTVTVSSGGSGQSVLTQPPSASGTPGQRVTISCSGSSSNIGSNTVNWYQQLPGTAPKLLIYSDNQRPSGVPDRFSGSKSGSSASLAISGLQSDDEADYYCATWDDSLNGAVFGGGTKLTVLGGSGGSEVQLVESGGGLVQPGGSLRLSCAASGFTFSTYAMNWVRQAPGKGLEWVGRIRSKYNNYATYYADSVKDRFTISRDDSKNSLYLQMNSLKTEDTAVYYCARHGNFGNSYVSWFAYWGQGTLVTVSS
Consider B6, for which the “T cell Proliferation in PBMC EC50” value with human CD3 came to 0.038 nM. In addition, the KD ratio CynoCD33/huCD33 in test [1] turned out to be 33.8.

B7: CD33/CD3 tandem diabody 19 (bispecific antibody)
chain: DIQMTQSPSSLSASVGDRVTITCRSSTGAVTTSNYANWVQQKPGKAPKALIGGTNKRAPGVPSRFSGSLIGDKATLTISSLQPEDFATYYCALWYSNLWVFGQGTKVEIKGGSGGSQVQLVQSGAEVKKPGASVKVSCKASGYTFTSYYMHWVRQAPGQGLEWMGIINPSGGSTSYAQKFQGRVTMTRDTSTSTVYMELSSLRSEDTAVYYCARDVVPAAIDYYGMDVWGQGTTVTVSSGGSGQSVLTQPPSASGTPGQRVTISCSGSSSNIGSNTVNWYQQLPGTAPKLLIYSDNQRPSGVPDRFSGSKSGSSASLAISGLQSDDEADYYCATWDDSLNGAVFGGGTKLTVLGGSGGSEVQLVESGGGLVQPGGSLRLSCAASGFTFSTYAMNWVRQAPGKGLEWVGRIRSKYNNYATYYADSVKDRFTISRDDSKNSLYLQMNSLKTEDTAVYYCARHGNFGNSYVSYFAYWGQGTLVTVSSAAAGSHHHHHH
For the molecule B7, the KD ratio CynoCD33/huCD33 in test [1] is 37.3.

The values are drawn from patent US20210024654A1 (AMPHIVENA THERAPEUTICS, published 2021).
